For 1 molecule, JNK activation in Aβ42-stressed PKR-/- neurons (immunoblot), XG-102, JNK activity as ratio pJNK/JNK after 1 mM H2O2 (immunoblot), XG-102 and c-Jun phosphorylation in Aβ42-stressed WT neurons (immunoblot), XG-102 results are on record in patent publication US20170290877A1.

For the assay, the target named is JNK in primary mouse cortical neurons. As to the kind of experiment: cell-based or functional assay.

Non-standard residues stand in square brackets, D forms with d. No end group written: not given here.

Turning to [dD][dQ][dS][dR][dP][dV][dQ][dP][dF][dL][dN][dL][dT][dT][dP][dR][dK][dP][dR][dP][dP][dR][dR][dR][dQ][dR][dR][dK][dK][dR]G [D-TAT-IB1(s)], the JNK activation in Aβ42-stressed PKR-/- neurons (immunoblot), XG-102 at 10 µM was -35%; the JNK activity as ratio pJNK/JNK after 1 mM H2O2 (immunoblot), XG-102 at 10 µM (% of controls) came out at 45; the c-Jun phosphorylation in Aβ42-stressed WT neurons (immunoblot), XG-102 at 10 µM was -74%.
